The text below walks through data of patent US20110239331A1.

Assay [1] addresses bee brain calcium channels (Apis mellifera brain neurons, ICa) (Apis mellifera). Put plainly: cell-based or functional assay.
The target in assay [2] is mouse trigeminal (sensory) neuron calcium channels (ICa) (mouse). Briefly: cell-based or functional assay.

A value given as a limit tells only on which side of the number the result lay.

As to omega-atracotoxin-Hv2a (peptide), in assay [1], the EC50 for inhibition of ICa turned out to be 0.15 nM and the preference for insect versus vertebrate calcium channels (against m4) was > 50000 fold.

In the case of “ω-agatoxin-IVA (from UniProt P30288 1-48) (peptide)”, in assay [1], the EC50 for inhibition of ICa in bee neurons was 10 nM and the preference for insect versus vertebrate calcium channels (against m4) amounted to 2 fold. Besides, in assay [2], the EC50 for inhibition of a component of ICa in mouse sensory neurons is 20 nM and the maximum ICa inhibition in mouse sensory neurons was determined as 40%.
